This note sets out measurements from paper PMC11811891, “Structural insights into human TFIIIC promoter recognition” (Science Advances, 2023).

First the molecules themselves.
B1: human TFIIIC subunit TFIIIC110 (natural protein)
chain: MDTCGVGYVALGEAGPVGNMTVVDSPGQEVLNQLDVKTSSEMTSAEASVEMSLPTPLPGFEDSPDQRRLPPEQESLSRLEQPDLSSEMSKVSKPRASKPGRKRGGRTRKGPKRPQQPNPPSAPLVPGLLDQSNPLSTPMPKKRGRKSKAELLLLKLSKDLDRPESQSPKRPPEDFETPSGERPRRRAAQVALLYLQELAEELSTALPAPVSCPEGPKVSSPTKPKKIRQPAACPGGEEVDGAPRDEDFFLQVEAEDVEESEGPSESSSEPEPVVPRSTPRGSTSGKQKPHCRGMAPNGLPNHIMAPVWKCLHLTKDFREQKHSYWEFAEWIPLAWKWHLLSELEAAPYLPQEEKSPLFSVQREGLPEDGTLYRINRFSSITAHPERWDVSFFTGGPLWALDWCPVPEGAGASQYVALFSSPDMNETHPLSQLHSGPGLLQLWGLGTLQQESCPGNRAHFVYGIACDNGCIWDLKFCPSGAWELPGTPRKAPLLPRLGLLALACSDGKVLLFSLPHPEALLAQQPPDAVKPAIYKVQCVATLQVGSMQATDPSECGQCLSLAWMPTRPHQHLAAGYYNGMVVFWNLPTNSPLQRIRLSDGSLKLYPFQCFLAHDQAVRTLQWCKANSHFLVSAGSDRKIKFWDLRRPYEPINSIKRFLSTELAWLLPYNGVTVAQDNCYASYGLCGIHYIDAGYLGFKAYFTAPRKGTVWSLSGSDWLGTIAAGDISGELIAAILPDMALNPINVKRPVERRFPIYKADLIPYQDSPEGPDHSSASSGVPNPPKARTYTETVNHHYLLFQDTDLGSFHDLLRREPMLRMQEGEGHSQLCLDRLQLEAIHKVRFSPNLDSYGWLVSGGQSGLVRIHFVRGLASPLGHRMQLESRAHFNAMFQPSSPTRRPGFSPTSHRLLPTP
notes: TFIIIC110, subunit of human TFIIIC; No truncation is described; also called τ91 in yeast (homolog); GTF3C2; source: Sf21 insect cells, baculovirus, coexpressed with the other five hTFIIIC subunits; purified (anti-FLAG M2 agarose, Capto HiRes Q)
B2: human TFIIIC subunit TFIIIC35 (natural protein)
chain: MAAAADERSPEDGEDEEEEEQLVLVELSGIIDSDFLSKCENKCKVLGIDTERPILQVDSCVFAGEYEDTLGTCVIFEENVEHADTEGNNKTVLKYKCHTMKKLSMTRTLLTEKKEGEENIGGVEWLQIKDNDFSYRPNMICNFLHENEDEEVVASAPDKSLELEEEEIQMNDSSNLSCEQEKPMHLEIEDSGPLIDIPSETEGSVFMETQMLP
notes: TFIIIC35, subunit of human TFIIIC; the ordered GTF3C6 gene encoded a serine in position 1, which was replaced by methionine; No truncation is described; also called τ55 in yeast (homolog); GTF3C6; source: Sf21 insect cells, baculovirus, coexpressed with the other five hTFIIIC subunits; purified (anti-FLAG M2 agarose, Capto HiRes Q)
B3: human TFIIIC subunit TFIIIC102 (natural protein)
chain: MSGFSPELIDYLEGKISFEEFERRREERKTREKKSLQEKGKLSAEENPDDSEVPSSSGINSTKSQDKDVNEGETSDGVRKSVHKVFASMLGENEDDEEEEEEEEEEEEEEETPEQPTAGDVFVLEMVLNRETKKMMKEKRPRSKLPRALRGLMGEANIRFARGEREEAILMCMEIIRQAPLAYEPFSTLAMIYEDQGDMEKSLQFELIAAHLNPSDTEEWVRLAEMSLEQDNIKQAIFCYTKALKYEPTNVRYLWERSSLYEQMGDHKMAMDGYRRILNLLSPSDGERFMQLARDMAKSYYEANDVTSAINIIDEAFSKHQGLVSMEDVNIAAELYISNKQYDKALEIITDFSGIVLEKKTSEEGTSEENKAPENVTCTIPDGVPIDITVKLMVCLVHLNILEPLNPLLTTLVEQNPEDMGDLYLDVAEAFLDVGEYNSALPLLSALVCSERYNLAVVWLRHAECLKALGYMERAAESYGKVVDLAPLHLDARISLSTLQQQLGQPEKALEALEPMYDPDTLAQDANAAQQELKLLLHRSTLLFSQGKMYGYVDTLLTMLAMLLKVAMNRAQVCLISSSKSGERHLYLIKVSRDKISDSNDQESANCDAKAIFAVLTSVLTKDDWWNLLLKAIYSLCDLSRFQEAELLVDSSLEYYSFYDDRQKRKELEYFGLSAAILDKNFRKAYNYIRIMVMENVNKPQLWNIFNQVTMHSQDVRHHRFCLRLMLKNPENHALCVLNGHNAFVSGSFKHALGQYVQAFRTHPDEPLYSFCIGLTFIHMASQKYVLRRHALIVQGFSFLNRYLSLRGPCQESFYNLGRGLHQLGLIHLAIHYYQKALELPPLVVEGIELDQLDLRRDIAYNLSLIYQSSGNTGMAQTLLYTYCSI
notes: TFIIIC102, subunit of human TFIIIC; No truncation is described; also called τ131 in yeast (homolog); GTF3C3; source: Sf21 insect cells, baculovirus, coexpressed with the other five hTFIIIC subunits; purified (anti-FLAG M2 agarose, Capto HiRes Q)
B4: human TFIIIC subunit TFIIIC63 (natural protein)
chain: MAAEAADLGLGAAVPVELRRERRMVCVEYPGVVRDVAKMLPTLGGEEGVSRIYADPTKRLELYFRPKDPYCHPVCANRFSTSSLLLRIRKRTRRQKGVLGTEAHSEVTFDMEILGIISTIYKFQGMSDFQYLAVHTEAGGKHTSMYDKVLMLRPEKEAFFHQELPLYIPPPIFSRLDAPVDYFYRPETQHREGYNNPPISGENLIGLSRARRPHNAIFVNFEDEEVPKQPLEAAAQTWRRVCTNPVDRKVEEELRKLFDIRPIWSRNAVKANISVHPDKLKVLLPFIAYYMITGPWRSLWIRFGYDPRKNPDAKIYQVLDFRIRCGMKHGYAPSDLPVKAKRSTYNYSLPITVKKTSSQLVTMHDLKQGLGPSGTSGARKPASSKYKLKDSVYIFREGALPPYRQMFYQLCDLNVEELQKIIHRNDGAENSCTERDGWCLPKTSDELRDTMSLMIRQTIRSKRPALFSSSAKADGGKEQLTYESGEDEEDEEEEEEEEEDFKPSDGSENEMETEILDYV
notes: TFIIIC63, subunit of human TFIIIC; coding gene from DNASU, codon-optimized for insect cells; No truncation is described; also called τ95 in yeast (homolog); GTC3C5 (so in the source); source: Sf21 insect cells, baculovirus, coexpressed with the other five hTFIIIC subunits; purified (anti-FLAG M2 agarose, Capto HiRes Q)
B5: human TFIIIC subunit TFIIIC90 (natural protein)
chain: MNTADQARVGPADDGPAPSGEEEGEGGGEAGGKEPAADAAPGPSAAFRLMVTRREPAVKLQYAVSGLEPLAWSEDHRVSVSTARSIAVLELICDVHNPGQDLVIHRTSVPAPLNSCLLKVGSKTEVAECKEKFAASKDPTVSQTFMLDRVFNPEGKALPPMRGFKYTSWSPMGCDANGRCLLAALTMDNRLTIQANLNRLQWVQLVDLTEIYGERLYETSYRLSKNEAPEGNLGDFAEFQRRHSMQTPVRMEWSGICTTQQVKHNNECRDVGSVLLAVLFENGNIAVWQFQLPFVGKESISSCNTIESGITSPSVLFWWEYEHNNRKMSGLIVGSAFGPIKILPVNLKAVKGYFTLRQPVILWKEMDQLPVHSIKCVPLYHPYQKCSCSLVVAARGSYVFWCLLLISKAGLNVHNSHVTGLHSLPIVSMTADKQNGTVYTCSSDGKVRQLIPIFTDVALKFEHQLIKLSDVFGSVRTHGIAVSPCGAYLAIITTEGMINGLHPVNKNYQVQFVTLKTFEEAAAQLLESSVQNLFKQVDLIDLVRWKILKDKHIPQFLQEALEKKIESSGVTYFWRFKLFLLRILYQSMQKTPSEALWKPTHEDSKILLVDSPGMGNADDEQQEEGTSSKQVVKQGLQERSKEGDVEEPTDDSLPTTGDAGGREPMEEKLLEIQGKIEAVEMHLTREHMKRVLGEVYLHTWITENTSIPTRGLCNFLMSDEEYDDRTARVLIGHISKKMNKQTFPEHCSLCKEILPFTDRKQAVCSNGHIWLRCFLTYQSCQSLIYRRCLLHDSIARHPAPEDPDWIKRLLQSPCPFCDSPVF
notes: TFIIIC90, subunit of human TFIIIC; coding gene from DNASU, codon-optimized for insect cells; No truncation is described; also called τ60 in yeast (homolog); source: Sf21 insect cells, baculovirus, coexpressed with the other five hTFIIIC subunits; purified (anti-FLAG M2 agarose, Capto HiRes Q)

For data set [1], the target named is T1, human TFIIIC subunit TFIIIC220 (human, UniProt Q12789 1-2109).
T1 construct: TFIIIC220, largest subunit of human TFIIIC; 2109 amino acids as printed; No truncation is described; the expected mass of 624 kDa is that of the intact complex; also called τ138 in yeast (homolog); GTF3C1; source: Sf21 insect cells, baculovirus, coexpressed with the other five hTFIIIC subunits; purified (anti-FLAG M2 agarose, Capto HiRes Q); not shown: 3x FLAG, C-terminal, kept
T1 sequence (Q12789 whole entry, the tested form may be a part): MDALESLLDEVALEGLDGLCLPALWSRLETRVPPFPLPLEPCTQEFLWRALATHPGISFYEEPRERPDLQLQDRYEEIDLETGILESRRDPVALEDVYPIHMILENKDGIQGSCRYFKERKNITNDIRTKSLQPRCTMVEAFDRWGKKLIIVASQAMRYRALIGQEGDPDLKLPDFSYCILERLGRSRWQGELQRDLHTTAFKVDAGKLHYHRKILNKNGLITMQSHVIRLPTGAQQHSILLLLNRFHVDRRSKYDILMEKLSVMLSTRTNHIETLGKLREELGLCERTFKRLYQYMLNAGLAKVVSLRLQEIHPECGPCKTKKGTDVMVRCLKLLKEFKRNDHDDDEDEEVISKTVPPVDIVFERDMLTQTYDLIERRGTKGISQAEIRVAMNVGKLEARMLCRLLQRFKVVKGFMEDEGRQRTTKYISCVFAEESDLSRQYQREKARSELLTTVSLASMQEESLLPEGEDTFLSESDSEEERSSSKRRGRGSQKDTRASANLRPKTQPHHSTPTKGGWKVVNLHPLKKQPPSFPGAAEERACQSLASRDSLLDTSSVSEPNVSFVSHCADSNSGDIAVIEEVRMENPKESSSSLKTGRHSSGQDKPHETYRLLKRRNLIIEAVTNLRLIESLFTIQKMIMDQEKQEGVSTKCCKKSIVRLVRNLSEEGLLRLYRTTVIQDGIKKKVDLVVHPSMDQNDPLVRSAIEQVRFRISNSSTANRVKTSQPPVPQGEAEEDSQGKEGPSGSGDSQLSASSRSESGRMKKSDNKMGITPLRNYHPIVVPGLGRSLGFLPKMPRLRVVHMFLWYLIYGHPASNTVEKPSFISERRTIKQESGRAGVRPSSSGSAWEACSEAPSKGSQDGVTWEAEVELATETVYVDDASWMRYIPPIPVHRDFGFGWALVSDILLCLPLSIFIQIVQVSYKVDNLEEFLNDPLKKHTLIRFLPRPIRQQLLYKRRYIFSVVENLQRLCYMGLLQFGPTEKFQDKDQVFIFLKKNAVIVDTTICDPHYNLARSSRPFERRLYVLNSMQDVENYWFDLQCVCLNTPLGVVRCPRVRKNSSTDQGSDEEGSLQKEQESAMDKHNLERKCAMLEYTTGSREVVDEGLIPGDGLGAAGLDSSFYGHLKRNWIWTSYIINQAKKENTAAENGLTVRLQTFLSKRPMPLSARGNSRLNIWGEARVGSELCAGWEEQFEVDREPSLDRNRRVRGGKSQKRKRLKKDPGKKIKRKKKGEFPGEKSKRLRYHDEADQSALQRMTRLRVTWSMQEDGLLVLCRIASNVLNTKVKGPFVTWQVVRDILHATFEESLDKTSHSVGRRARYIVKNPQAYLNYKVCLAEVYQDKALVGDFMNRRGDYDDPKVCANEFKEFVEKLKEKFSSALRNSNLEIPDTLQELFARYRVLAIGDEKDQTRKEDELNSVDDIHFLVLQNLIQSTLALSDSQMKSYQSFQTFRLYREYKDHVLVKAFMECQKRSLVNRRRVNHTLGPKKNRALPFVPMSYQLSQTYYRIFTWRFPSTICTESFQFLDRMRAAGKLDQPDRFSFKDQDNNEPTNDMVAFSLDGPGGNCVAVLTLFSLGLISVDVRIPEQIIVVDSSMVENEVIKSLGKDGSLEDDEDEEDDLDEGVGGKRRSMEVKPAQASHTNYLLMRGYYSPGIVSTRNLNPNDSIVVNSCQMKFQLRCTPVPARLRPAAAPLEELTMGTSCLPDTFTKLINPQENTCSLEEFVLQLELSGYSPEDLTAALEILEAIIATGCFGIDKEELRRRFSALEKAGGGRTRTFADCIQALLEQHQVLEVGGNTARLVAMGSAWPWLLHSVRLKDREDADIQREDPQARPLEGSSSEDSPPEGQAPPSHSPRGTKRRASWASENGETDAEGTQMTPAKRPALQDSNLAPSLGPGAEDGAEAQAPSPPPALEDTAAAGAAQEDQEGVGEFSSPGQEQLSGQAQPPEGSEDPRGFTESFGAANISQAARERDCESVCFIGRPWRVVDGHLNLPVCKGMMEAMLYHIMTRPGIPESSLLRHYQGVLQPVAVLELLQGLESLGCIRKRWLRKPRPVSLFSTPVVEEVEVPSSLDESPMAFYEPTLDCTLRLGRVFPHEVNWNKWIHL
Kind of data set: mass photometry; purified hTFIIIC alone; 1 μl of sample at 400 nM added to 19 μl of 20 mM Hepes pH 8, 150 mM KCl, 2 mM MgCl2, 5 mM DTT; Refeyn TwoMP; nanomolar concentrations. To be noted: both partners purified.

Data set [2] concerns the molecule itself. The data set can be described thus: cryo-EM structure; purified hTFIIIC (3.17 μM) alone or with human TRR-TCT3-2 tRNA gene DNA at a 1:1 molar ratio; EM buffer 20 mM Hepes pH 8, 225 mM KCl, 2 mM MgCl2, 5 mM DTT; 0.1% octyl-β-glucoside; separate reconstructions of τA and of dimeric τB.
The target of data set [3] is B4. Described as above. Conditions: both partners purified.

With B1, the binding result in data set [1] is recorded as “binds”. The “stoichiometry N” value in data set [2] came out at 2. Regarding B2, the binding result in data set [1] and in data set [3] was “binds” throughout. Consider B3, for which, in data set [1], the binding result is listed as “binds”. Same read-out and setting: the result for B4 reads “binds”; that for B5, “binds”.

The term stoichiometry N denotes the number of molecules, sites or subunits per partner or assembly.
